# Literature values, collected in article PMC3971948.
# Biological target: Asp85 (UniProt position 98, WAQYADWLFTT)
# Details: Initial unphotolysed BR state of the R82Q mutant
substance,measurement,value
Bacteriorhodopsin R82Q (Halobacterium salinarum; R82Q),pKa,up to ∼7
